What was measured:
Assay in all cases: Adhesion of radioactively labeled bacteria to treated hydroxyapatite (HA)
Format in all cases: cell-based
Bacteroides gingivalis = tested on: Bacteroides gingivalis
Method: (§1) PRP-1 and PRP-1(Tl) were investigated for their abilities to promote adhesion of bacteria to HA. Essentially, the method is to treat HA samples with nothing (negative control), saliva (positive control), or the respective proteins or peptides. The excess agent is removed by washing, and suspensions of radioactively labeled bacteria are added to the treated HA. After a suitable time, the excess bacteria are removed by washing and those remaining adsorbed to the HA are counted in a scintillation counter. In the table of results, bacterial adsorption to saliva-treated HA is considered to be 100%, and adsorption to PRP-1 or PRP-1(Tl)-treated HA expressed as a percentage of this reference value. This approach is necessary because of the diverse behaviors of different bacteria.

Streptococcus sanguis = tested on: Streptococcus sanguis
Method: as §1

Streptococcus mitis = conditions: HA treated with the protein/peptide, saliva-treated HA = 100%
Method: as §1

Streptococcus mutans = conditions: HA treated with the protein/peptide, saliva-treated HA = 100%
Method: as §1

Actinomyces viscosus = conditions: HA treated with the protein/peptide, saliva-treated HA = 100%
Method: as §1

B1: PRP-1: acidic proline-rich phosphoprotein derived from human saliva, 150 residues; sequence shown in the diagram (protein, UniProt P02810 17-166, looked up)
Salivary acidic proline-rich …: QDLDEDVSQEDVPLVISDGGDSEQFIDEERQGPPLGGQQSQPSAGDGNQNDGPQQGPPQQGGQQQQGPPPPQGKPQGPPQQGGHPPPPQGRPQGPPQQGGHPRPPRGRPQGPPQQGGHQQGPPPPPPGKPQGPPPQGGRPQGPPQGQSPQ
adhesion of organism to treated HA (in words) (Bacteroides gingivalis; B. gingivalis, versus saliva-treated HA): higher than adhesion to saliva-treated HA
PERCENT ADHESION COMPARED TO SALIVA-TREATED HA (Bacteroides gingivalis; Bacteroides gingivalis, HA treated with the protein/peptide, saliva-treated HA = 100%): 335%
adhesion of organism to treated HA (in words) (Streptococcus sanguis; S. sanguis, versus saliva-treated HA): higher than adhesion to saliva-treated HA
PERCENT ADHESION COMPARED TO SALIVA-TREATED HA (Streptococcus sanguis; Streptococcus sanguis, HA treated with the protein/peptide, saliva-treated HA = 100%): 144%
PERCENT ADHESION COMPARED TO SALIVA-TREATED HA (Streptococcus mitis): 38%
PERCENT ADHESION COMPARED TO SALIVA-TREATED HA (Streptococcus mutans): 81%
PERCENT ADHESION COMPARED TO SALIVA-TREATED HA (Actinomyces viscosus): 105%
